Laboratory results: patent US10857209B2, “Lysosomal acid lipase and PPAR gamma ligands as immune therapies for cancer treatment” (Indiana University Research and Technology Corporation, priority 2016, dated 2020)

Tests used:
mTOR pathway = assay: Flow cytometry of mTOR pathway in gated Ly6G+CD11b+ bone marrow cells; format: cell-based, mouse; conditions: 20 μmol/L, 2 hours
Protocol: For in vitro PPARγ ligand treatment, 9-HODE (Cayman Chemical Co., Ann Arbor, Mich., USA) was added into the culture medium of MDSCs to a final concentration of 20 μmol/L for 24 or 48 hours. For the study of the effect of PPARγ ligand on the mTOR signaling pathway, bone marrow cells were treated with 9-HODE (20 μmol/L) for 2 hours.
Single cells from the bone marrow of 5-month-old lal^+/+ and lal^−/− mice were prepared as described in Qu et al., Cancer Res. 2009; 69:7252-7261. After 20 μmol/L 9-HODE treatment for 2 hours, cells were harvested, and labeled with anti-Ly6G and CD11b cell surface antibody (eBioscience) at 4° C. for 15 minutes. Cells were then fixed and permeabilized using BD Cytofix/Cytoperm Fixation/Permeabilization Kit (BD Biosciences) according to the manufacturer's instructions, and incubated with Alexa Fluor 647-conjugated anti-mTOR antibody, Alexa Fluor 488-conjugated anti-S6 antibody, Alexa Fluor 488-conjugated anti-pS6 (Ser235/236) antibody, and rabbit anti-pmTOR (Ser2448) antibody (Cell Signaling Technology, Beverly, Mass., USA) at 4° C. overnight. For anti-pmTOR antibody staining, cells were incubated with Alexa Fluor 647-conjugated anti-rabbit IgG in the following day. Cells were washed and ready for flow cytometry analysis. Mean fluorescence intensities of the proteins in the gated Ly6G^+CD11b^+ area were analyzed. For flow cytometry analysis, ≥10,000 cells were acquired and scored using a LSRII machine (BD Biosciences). Data were processed using the CellQuest software program (BD Biosciences).

B16 melanoma cells = assay: B16 melanoma metastasis in LAP-Tg/KO mice; format: in vivo, mouse; conditions: hepatocyte-specific expression in lal−/− mice; 5×10^5 cells i.v., two weeks
Source text: LAP-tTA/(TetO)7-CMV-hLAL; lal^−/− (LAP-Tg/KO) triple mice of the FVB/N background was established by cross-breeding of LAP-tTA transgenic mice (Jackson's Laboratory, Bar Harbor, Me.) with a previously generated (tetO)7-CMV-hLAL transgenic mice into lal^−/− mice. This triple transgenic mouse model was hepatocyte-specific Tet-off expression of wild-type hLAL in lal^−/− mice under the control of the LAP. All scientific protocols that involved the use of animals were approved by the Institutional Animal Care and Use Committee of Indiana University School of Medicine and followed guidelines established by the Panel on Euthanasia of the American Veterinary Medical Association. Animals were housed in a secured animal facility at Indiana University School of Medicine.
Tissues from the liver, intestine, and lung were collected after mice were anesthetized. All tissues were washed with phosphate-buffered saline and dehydrated by a series of increasing ethanol concentrations, followed by paraffin embedding. Sections were stained with anti-Ki67 antibody, anti-LAL antibody, and anti-F4/80 antibody by the histologic core.
For experimental metastasis, 5×10^5 B16 melanoma cells in 200 μL of phosphate-buffered saline were injected into the mice via tail vein. Two weeks after the injection, the mice were sacrificed, and the livers and lungs were harvested for examination of metastasis.

Ly6G+CD11b+ cells = assay: Flow cytometry of Ly6G+CD11b+ cells in CCSP-Tg/KO mice; format: in vivo, mouse
Protocol: For immune cell profile analysis, single cells from the lung, bone marrow, spleen and blood of lal^+/+, lal^−/− and CCSP-Tg/KO triple mice were prepared. Cells were labeled with isotype control or surface-specific primary antibodies at 4° C. for 15 minutes, and then washed and ready for flow cytometry analysis. Anti-CD11b (M1/70) PE-Cyanine7 and anti-Ly6G (RB6-8c5) APC-eFluor® 780 were purchased from eBiosciences (San Diego, Calif., USA). For characterization of tissue-specific expression of the hLAL transgene, single cells from the lungs of lal^+/+, lal^−/− and CCSP-Tg/KO triple mice were prepared and stained. Surfactant protein C (SP-C, AT II epithelial cell marker) Ab and Flag Ab were purchased from Santa Cruz Biotechnology (Dallas, Tex., USA) and Sigma-Aldrich (St. Louis, Mo., USA), respectively. In gated SP-C^+ cells, the number of the Flag^+ cells were analyzed by flow cytometry and calculated based on M1, which is defined by isotype control. Whole spleen cells were used as a control, in which the number of the Flag^+ cells was analyzed. For flow cytometry analysis, ≥30,000 cells were acquired and scored using a LSRII machine (BD Biosciences, San Jose, Calif., USA). Data were processed using the CellQuest software program (BD Biosciences).

[1] = tested on: LLC or B16 melanoma cells; assay: In vitro BALF treatment of tumor cells (proliferation, wound healing); format: cell-based, mouse
Protocol: BALF was harvested by 1 mL PBS, and cells were removed by centrifugation. To determine the effect of BALF on tumor cell proliferation, B16 melanoma or LLC cells (5×10^3) were seeded into a well of 96-well plates in 100 μL DMEM supplemented with 10% FBS, and then treated with 100 μL BALF harvested from lal^+/+, lal^−/− or CCSP-Tg/KO triple mice. Seventy-two hours later, the number of B16 melanoma or LLC cells was counted.
To analyze the effects of BALF on tumor cell or EC migration, in vitro wound healing assays were performed. Briefly, tumor cells or ECs were seeded at a density of 1.5×10^5 cells/well into a 24-well plate and incubated overnight to form a confluent monolayer. Scratch was created by scraping the cell monolayer in a straight line with a p200 pipet tip. After washing 3 times with PBS, the medium was changed with 250 μL DMEM containing 10% FBS and 5 μg/mL mitomycin C (Sigma-Aldrich). Then 250 μL BALF from lal^+/+, lal^−/− or CCSP-Tg/KO triple mice were added to the well. Cells were kept on culture at 37° C., 5% CO2. Images were taken at 0 and 15 hours after creating the scratch. Migration was estimated by measuring the distances from one side of the scratch to the other side using Image Pro-Plus software (Media Cybernetics, Rockville, Md., USA).

[2] = doxycycline-treated CCSP-Tg/KO mice

Row | Molecule | phosphorylation of S6 (MFI) (mTOR pathway; gated lal−/− Ly6G+CD11b+ cells) | phosphorylation of mTOR (MFI) (mTOR pathway; gated lal−/− Ly6G+CD11b+ cells) | overall levels of mTOR and S6 (mTOR pathway; lal−/− MDSCs) | B16 melanoma cell metastasis in liver and lung (B16 melanoma cells) | percentage of Ly6G+CD11b+ cells in the lung (Ly6G+CD11b+ cells; doxycycline-treated (hLAL on) vs untreated CCSP-Tg/KO mice) | Ly6G+CD11b+ cell accumulation in the blood (Ly6G+CD11b+ cells; [2]) | Ly6G+CD11b+ cells in the spleen and bone marrow (Ly6G+CD11b+ cells; [2]) | tumor cell proliferation in vitro ([1]; LLC or B16 cells cultured 72 hours with BALF from doxycycline-treated CCSP-Tg/KO mice) | tumor cell migration in vitro ([1]; LLC or B16 cells, wound healing 15 hours, BALF from doxycycline-treated CCSP-Tg/KO mice, mitomycin C)
1 | 9-hydroxyoctadecadienoic acid [9-HODE] | decreased phosphorylation of S6 | decreased phosphorylation of mTOR | reduced the overall levels of mTOR and S6 | – | – | – | – | – | –
2 | hLAL: human lysosomal acid lipase expressed from a doxycycline-controlled tissue-specific transgene in lal−/− mice; never administered as a protein (protein, left off: small tags and cut ends, human lysosomal acid lipase expressed from a doxycycline-controlled tissue-specific transgene in lal−/− mice; never administered as a protein) GPKPVVFLQHGLLADSSNWVTNLANSSLGFILADAGFDVWMGNSRGNTWSRKHKTLSVSQDEFWAFSYDEMAKYDLPASINFILNKTGQEQVYYVGHSQGTTIGFIAFSQIPELAKRIKMFFALGPVASVAFCTSPMAKLGRLPDHLIKDLFGDKEFLPQSAFLKWLGTHVCTHVILKELCGNLCFLLCGFNERNLNMSRVDVYTTHSPAGTSVQNMLHWSQAVKFQKFQAFDWGSSAKNYFHYNQSYPPTYNVKDMLVPTAVWSGGHDWLADVYDVNILLTQITNLVFHESIPEWEHLDFIWGLDAPWRLYNKIINLMRKYQ | – | – | – | reduced B16 melanoma cell metastasis | significantly decreased | reduced | no reversing effect | reduced | reduced
